Publication PMC7447434, “Atomic structure of a mitochondrial complex I intermediate from vascular plants” (eLife, 2020)

T1: NU2M (Vigna radiata, UniProt E9KZK9 1-488, S19F | S103F | S104F | P119L | P121S | R123C | H132Y | P143L | S166LL | S221F | …)
T1 construct: NU2M, mitochondrially encoded core PP-module subunit of Vigna radiata complex I; 488 residues; residues 1-487 modelled; 14 TMH; the substitutions are RNA editing sites against the entry, made in the model where the density fitted the edited residue; RNA edits are natural; 'S166LL' is printed so and was read as S166L; also called Nad2 (A. thaliana name)
T1 sequence (looked up): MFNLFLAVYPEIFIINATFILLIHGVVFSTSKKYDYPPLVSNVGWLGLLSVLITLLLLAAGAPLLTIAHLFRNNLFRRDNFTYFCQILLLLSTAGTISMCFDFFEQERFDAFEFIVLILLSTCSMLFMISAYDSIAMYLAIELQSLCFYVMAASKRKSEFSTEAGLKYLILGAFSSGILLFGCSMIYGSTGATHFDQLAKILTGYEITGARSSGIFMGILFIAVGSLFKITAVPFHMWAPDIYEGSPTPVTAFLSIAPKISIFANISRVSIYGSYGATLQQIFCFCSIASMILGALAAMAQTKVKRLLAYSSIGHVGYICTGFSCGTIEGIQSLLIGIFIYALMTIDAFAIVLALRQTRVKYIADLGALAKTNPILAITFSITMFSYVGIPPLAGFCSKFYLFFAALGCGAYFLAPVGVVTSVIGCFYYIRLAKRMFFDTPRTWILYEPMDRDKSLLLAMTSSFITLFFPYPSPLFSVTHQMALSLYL

B1: CA1 (natural protein, Vigna radiata, UniProt A0A1S3VT00 1-270, looked up)
chain: MGTLGRAFYAVGFWIRETGQAIDRLGSRLQGNYLFQEQLSRHRPLMNLFDKYPSVHKDAFVAPSASLLGDVHVGPASSIWYGCVLRGDVNGIVIGSGTNIQDNSLVHVAKSNLTGKVLPTIIGDNVTVGHSAVLQGCTVEDEAFIGMGATLLDGVYVEKHAMVAAGALVRQNTRIPYGEVWGGNPAKFLRKLTEDEMAFFSQSALNYSNLAQAHAAENAKELEETEFVKVLHKKFAPRGEEYDSILDGGQETPAKLNLQDNVLLDKAPKA
notes: CA1, gamma-carbonic-anhydrase domain subunit of Vigna radiata mitochondrial complex I; 270 residues; residues 3-222 modelled, 223-233 as poly-Ala; also called carbonic-anhydrase-1 subunit; Gamma-CA 1 (A. thaliana name)

Key:
Assay in all cases: cryo-EM structure; CI* (~800 kDa assembly intermediate) from V. radiata mitochondrial membranes, digitonin-extracted, amphipol A8-35-stabilised, sucrose gradient; 6 mg/ml in 20 mM HEPES, 150 mM NaCl, 1 mM EDTA, 0.1% digitonin, pH 7.8; nominal resolution 3.9 Å; interfaces of the γCA domain listed from the model with PDBePISA
Conditions in all cases: both partners purified
CA1 = biological target: B1
NU2M [1] = biological target: T1, NU2M
NU2M [2] = biological target: T1, NU2M; remark: listed apart in the source

| Binder | binding result (CA1) | binding result (NU2M [1]) | binding result (NU2M [2]) |
| --- | --- | --- | --- |
| NDUC2 (natural protein, Vigna radiata, UniProt A0A1S3UPL8 1-81, looked up, NDUC2, membrane arm accessory subunit of Vigna radiata mitochondrial complex I; 81 residues; residues 5-68 modelled; 2 TMH; also called B14.5b (A. thaliana name)) MVLSATTIGALLGLGTQMYSNALRKLPYMRHPWEHVVGMGLGAVFVNQLLKWEAQVEQDLDKMLEKAKAANERRYIDGDDD | binds | binds | – |
| B1 | – | – | binds |
| NDUX1 (natural protein, Vigna radiata, UniProt A0A1S3VI15 1-101, looked up, NDUX1, PP-module accessory subunit of Vigna radiata mitochondrial complex I, named here after Y. lipolytica NUXM; 101 residues; residues 1-100 modelled; 2 TMH; also called homologue of Y. lipolytica NUXM; 20.9 kDa (A. thaliana name)) MNTDITASTKPEYPVVDRNPPFTKVVGNFSTLDYLRFVTITGVSVTVGYLSGIKPGIRGPSMVTGGLIGVMGGFMYAYQNSAGRLMGFFPNDDEVARHNKK | binds | binds | – |
